# Laboratory results as given in PMC8229176.
# Biological target: ACE2 on ACE2-transfected HEK293 cells (UniProt Q9BYF1)
# Test: flow cytometry on cells
# Sequence of UniProt Q9BYF1 (Q9BYF1 18-805): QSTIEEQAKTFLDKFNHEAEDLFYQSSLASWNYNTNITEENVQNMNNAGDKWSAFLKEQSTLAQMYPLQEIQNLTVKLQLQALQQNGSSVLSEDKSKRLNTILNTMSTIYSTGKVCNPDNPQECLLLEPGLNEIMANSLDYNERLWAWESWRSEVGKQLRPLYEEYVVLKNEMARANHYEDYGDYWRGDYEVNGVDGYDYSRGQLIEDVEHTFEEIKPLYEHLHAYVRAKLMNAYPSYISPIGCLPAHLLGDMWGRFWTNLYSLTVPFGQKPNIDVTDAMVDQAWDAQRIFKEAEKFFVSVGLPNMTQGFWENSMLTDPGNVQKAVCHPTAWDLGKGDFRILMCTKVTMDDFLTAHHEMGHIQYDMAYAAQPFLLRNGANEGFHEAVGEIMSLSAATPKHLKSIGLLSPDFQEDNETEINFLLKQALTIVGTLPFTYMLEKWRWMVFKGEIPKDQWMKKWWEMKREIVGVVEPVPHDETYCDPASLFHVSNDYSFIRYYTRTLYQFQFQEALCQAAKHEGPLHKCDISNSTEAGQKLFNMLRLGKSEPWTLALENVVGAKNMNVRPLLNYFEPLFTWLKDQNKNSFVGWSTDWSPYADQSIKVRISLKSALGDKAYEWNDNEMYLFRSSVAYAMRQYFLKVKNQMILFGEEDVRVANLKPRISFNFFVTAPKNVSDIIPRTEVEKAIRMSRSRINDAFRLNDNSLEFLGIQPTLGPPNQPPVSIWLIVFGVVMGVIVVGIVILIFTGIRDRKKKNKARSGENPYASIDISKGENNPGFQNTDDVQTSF
substance,measurement,value
"SARS-CoV-2 spike protein receptor-binding domain (RBD), His6-tagged (domain or fragment)",EC50,49.1 nM
